The values below come from article PMC9507130.

This assay deals with Vrl1-Envy (S. cerevisiae). The experiment in a line: co-IP; yeast spheroplast lysates (0.1% Tween-20, 50 mM HEPES, 1 mM EDTA, 50 mM NaCl, pH 7.4); rabbit anti-GFP or anti-HA, Protein A Sepharose, 4 °C; western blot; Vrl1 over-expressed in some panels; vin1Δ strain for Vps5-3HA with Vrl1-Envy.

B1: Vin1-3HA (natural protein)
chain: MENDKASHASPSIGVNEFVVQGEISIDDSERSVKSVSVSISDDEDSKTDVQDNMATPSTRSKFQTDLAIDNRLLEKDPKYKKLFTEKRRRRRPESCINLMTKGKGTGQKDNINDQIFSLRILPGSDLNSLKDSLWIIKISTQPDVEKTIARAFSDFYWLYHQLQNNHWGKTIPPPTRSNILVEKDEFAINHLFMIRNNEKYDPIFNFKPEYIISLQLMAMIKHIFNDKVLRLDSNFIDFISWDDDLPESLQIVVDDSTFTGDKILMTSSQFRELKEFHKQSKKVESITNSHASLIPVTELTEIYISPTKLFSRKDYQRLFQPQSTDNTFNNNDPLIQEWIPKSKTLFTSLSFGSSAPTYQEASTEIQACHDWVSISKEQWKQLLYHVLQYIVDEAVKVNSVINEFTECLKQISLDEVIRANSELFLKFSKLNESFLKKFKGASRQDILKLIILFDENVRFCESFESILNQRLKLGKILSIIEVDLDKKKNFLDKLSPGNNNSNNEDLKIRTAEDEYRIVLKRYNRVKQSWEKIMEDILNERKEFEKREAAEVNSCLKSIRDLNMDEKKHYLQLWQDFVPDEHISQ
Consider B1, for which the percent recovery of Vin1 in the co-IP amounted to 64%.
